From the supplement of paper PMC6755084

B1: minF1; a variant is named by its letters at N, in order (parent)
chain: GAGACCGCAACTGAAAAGTTGTTNNNNAANNNNGGNTNNATTTCTGCACGTAGAAGCAAAAGGC

Variants of: B1
Assay: fraction ligated after 30 min (ligated reads / total reads); higher = more ligase activity
Conditions: with F1*subA RNA substrate (template-directed ligation), 42 °C
Experimental: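 Chip-synthesised pool of minF1 ligase ribozyme variants (single and double substitutions, single to quadruple deletions, bulge and P2 designed variants) was transcribed with T7 and reacted as a pool with excess substrate F1*subA for 30 min at 42 C in 50 mM EPPS pH 8.5, 25 mM MgCl2. Ligated and unligated RNAs were separated by PAGE, barcoded by RT and deep sequenced; fraction ligated = ligated reads / total reads, relative activity = FL / FL of wild-type minF1 (0.76); sequencing FL correlated with PAGE (R2 = 0.98). Sequences are the DNA template of the ribozyme.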
TCAGATTGTGA T23A gave a fraction ligated of 0.00184.
In the case of TCAGATGGGTT T23A G34T T37G A40G, the fraction ligated is reported as 0.00157.
Work on ACAGATGTGTA yielded a fraction ligated of 0.00227.
With ACAGATGTGTG the fraction ligated was 0.0127.
In the case of TCAGATGGGTT G34A G35T T37G, the fraction ligated is reported as 0.00107.
TCAGAGGTTGA showed a fraction ligated of 0.00136.
With TCAGATGAGTT G34T T37G A40G the fraction ligated was 0.00127.
Variant ACAGATGGGTT G34A G35T T37G has a fraction ligated of 0.000596.
TCAGATGAGTG was tested, and the fraction ligated was 0.00463.
For TCAGATGAGTA, the fraction ligated was 0.0022.
Variant ACAGATGTTGA has a fraction ligated of 0.00338.
ACAGATGGGTA G34A gave a fraction ligated of 0.00284.
For ACAGATGGGTA G34T, the fraction ligated was 0.00288.
For ACAGAGGAGTT G34T T37G A40G, the fraction ligated was 0.00205.
ACAGATGAGTT G34T T37G A40G showed a fraction ligated of 0.00147.
TCAGGATGTGA A29G showed a fraction ligated of 0.00144.
TCAGGATGTGA A29T gave a fraction ligated of 0.00155.
TCAGGATGTGA T23A A28T A29G gave a fraction ligated of 0.00354.
Variant ACAGATGGTGA has a fraction ligated of 0.00375.
Work on ACAGAGTGTGA yielded a fraction ligated of 0.00284.
With TCAGATGATGA the fraction ligated was 0.00144.
TCAGGGAGTGA A29T was tested, and the fraction ligated was 0.00242.
In the case of TCAGATGGGGT G34A G35T T37G A40T, the fraction ligated is reported as 0.00121.
For TCAGAGGAGTT T23A G34T T37G A40G, the fraction ligated was 0.000303.
For TCAGATGAGTA T23A, the fraction ligated was 0.00194.
TCAGTATGTGA showed a fraction ligated of 0.00458.
TCAGATGGTGA T23A gave a fraction ligated of 0.0062.
With TCAGATATGTG the fraction ligated was 0.00722.
TCAGATATGTA was tested, and the fraction ligated was 0.00271.
TCAGTGATGTG T23A gave a fraction ligated of 0.00385.
TCAGGGATTGA A29T showed a fraction ligated of 0.00182.
In the case of TCAGGGAGTGA, the fraction ligated is reported as 0.00359.
TCAGATGGGTG T23A showed a fraction ligated of 0.00293.
TCAGATAGTGA was tested, and the fraction ligated was 0.00299.
ACAGATATGTA was tested, and the fraction ligated was 0.00255.
ACAGATATGTG gave a fraction ligated of 0.00478.
TCAGATGGGTA G34T was tested, and the fraction ligated was 0.00105.
In the case of TCAGATGGGTA G34A, the fraction ligated is reported as 0.00212.
ACAGAGGTGTA gave a fraction ligated of 0.00348.
ACAGAGGTGTG was tested, and the fraction ligated was 0.00409.
For TCAGGGATGTG T23A A29T, the fraction ligated was 0.0102.
TCAGAGGTTGA T23A gave a fraction ligated of 0.000867.
TCAGATGGGTT T23A G34A T37G A40G showed a fraction ligated of 0.
Variant TCAGAGTGTGA has a fraction ligated of 0.00219.
In the case of TCAGATGTGTG T23A, the fraction ligated is reported as 0.00627.
ACAGTATGTGA gave a fraction ligated of 0.00319.
Variant ACAGGATGTGA A29G has a fraction ligated of 0.00108.
In the case of ACAGGATGTGA A29T, the fraction ligated is reported as 0.00171.
ACAGGGATTGA was tested, and the fraction ligated was 0.00266.
TCAGATGAGTG T23A G34T showed a fraction ligated of 0.00649.
TCAGAGGAGTT T23A G34T T37G gave a fraction ligated of 0.000421.
TCAGAGGTGTG T23A showed a fraction ligated of 0.00531.
Work on TCAGGGTGTGA T23A A29T yielded a fraction ligated of 0.00472.
With ACAGATGAGTT G34T T37G the fraction ligated was 0.000925.
TCAGGGTGTGA T23A gave a fraction ligated of 0.00148.
For TCAGGGATGTA T23A, the fraction ligated was 0.00201.
Work on ACAGATGGGTT G34A G35T T37G A40G yielded a fraction ligated of 0.000584.
Variant TCAGGGATTGA has a fraction ligated of 0.00138.
With TCAGATGAGTT T23A G34T T37G the fraction ligated was 0.00034.
For TCAGATGGGTT T23A G34A G35T T37G, the fraction ligated was 0.00134.
For TCAGATGAGTT G34T T37G, the fraction ligated was 0.0017.
Variant TCAGGGATTGA T23A A29T has a fraction ligated of 0.0045.
For ACAGATGGGTT G34A T37G A40G, the fraction ligated was 0.000615.
Variant TCAGAGGATGA has a fraction ligated of 0.00215.
TCAGATGTTGA T23A was tested, and the fraction ligated was 0.00154.
TCAGAGGTGTA T23A was tested, and the fraction ligated was 0.00248.
TCAGAGTGTGA T23A gave a fraction ligated of 0.00281.
In the case of ACAGATGATGA, the fraction ligated is reported as 0.00115.
TCAGAGGAGTT G34T T37G A40G gave a fraction ligated of 0.000453.
Work on TCAGTGATGTG yielded a fraction ligated of 0.00561.
TCAGTGATGTA was tested, and the fraction ligated was 0.000465.
Variant TCAGTGATTGA has a fraction ligated of 0.00169.
Work on TCAGGATGTGA yielded a fraction ligated of 0.00269.
TCAGAGGGTGA T23A was tested, and the fraction ligated was 0.004.
Variant ACAGATGGGGT G34A G35T T37G A40T has a fraction ligated of 0.00109.
TCAGGGATGTA T23A A29T gave a fraction ligated of 0.00445.
ACAGATGGGTG G34A gave a fraction ligated of 0.0045.
ACAGATGGGTG G34T was tested, and the fraction ligated was 0.00406.
ACAGGGATGTA was tested, and the fraction ligated was 0.00263.
ACAGGGATGTG was tested, and the fraction ligated was 0.00506.
For TCAGATATTGA T23A, the fraction ligated was 0.00254.
Variant TCAGATTGTGA has a fraction ligated of 0.00132.
ACAGATATTGA showed a fraction ligated of 0.0012.
TCAGGATGTGA A28T A29G gave a fraction ligated of 0.00322.
In the case of TCAGATGGGTA T23A G34A, the fraction ligated is reported as 0.0017.
TCAGATGGGTA T23A G34T gave a fraction ligated of 0.00312.
With TCAGTGAGTGA T23A the fraction ligated was 0.0046.
Work on TCAGAGGGTGA yielded a fraction ligated of 0.00299.
With ACAGGGAGTGA the fraction ligated was 0.00202.
Variant TCAGATGTTGA has a fraction ligated of 0.0015.
TCAGGATGTGA T23A was tested, and the fraction ligated was 0.00221.
Work on TCAGATATTGA yielded a fraction ligated of 0.00261.
In the case of TCAGATGGGTT G34A T37G, the fraction ligated is reported as 0.00135.
In the case of TCAGGGATGTG A29T, the fraction ligated is reported as 0.00266.
TCAGATGGGTG G34T showed a fraction ligated of 0.00277.
Variant TCAGATGGGTG G34A has a fraction ligated of 0.00479.
Work on TCAGTGATGTA T23A yielded a fraction ligated of 0.00165.
TCAGATGGTGA gave a fraction ligated of 0.00356.
In the case of ACAGATGAGTA G34T, the fraction ligated is reported as 0.00197.
TCAGATGAGTT T23A G34T T37G A40G was tested, and the fraction ligated was 0.00258.
ACAGGGATGTA A29T was tested, and the fraction ligated was 0.00654.
With TCAGATGGGTT T23A G34T T37G the fraction ligated was 0.00101.
Variant TCAGATGGGTG T23A G34T has a fraction ligated of 0.00324.
In the case of TCAGATGGGTG T23A G34A, the fraction ligated is reported as 0.00659.
With TCAGGGATTGA T23A the fraction ligated was 0.000376.
With TCAGATGGGTT G34A T37G A40G the fraction ligated was 0.00106.
Work on TCAGATGGGTT G34T T37G A40G yielded a fraction ligated of 0.000744.
For TCAGATGGGTG, the fraction ligated was 0.005.
Variant TCAGATGGGTA has a fraction ligated of 0.000871.
Variant ACAGAGGAGTT G34T T37G has a fraction ligated of 0.00192.
Variant ACAGAGGTTGA has a fraction ligated of 0.00073.
Variant ACAGGGAGTGA A29T has a fraction ligated of 0.00347.
ACAGATGGGTT G34T T37G was tested, and the fraction ligated was 0.0016.
Work on TCAGATGGGTT T23A G34A T37G yielded a fraction ligated of 0.000991.
TCAGATGAGTA G34T was tested, and the fraction ligated was 0.00143.
Work on TCAGTGGAGTA yielded a fraction ligated of 0.00247.
For TCAGATGATGA T23A, the fraction ligated was 0.00196.
TCAGAGGTGTG showed a fraction ligated of 0.00329.
For TCAGAGGTGTA, the fraction ligated was 0.0016.
TCAGAGGATGA T23A showed a fraction ligated of 0.00378.
TCAGGGAGTGA T23A A29T gave a fraction ligated of 0.000582.
With TCAGTATGTGA T23A the fraction ligated was 0.00284.
With ACAGATGAGTG the fraction ligated was 0.00387.
With ACAGATGAGTA the fraction ligated was 0.00413.
Variant TCAGATGTGTG has a fraction ligated of 0.00413.
TCAGATGTGTA was tested, and the fraction ligated was 0.000796.
TCAGATGGGTA T23A was tested, and the fraction ligated was 0.00335.
Work on ACAGGATGTGA yielded a fraction ligated of 0.00342.
Work on ACAGGGTGTGA A29T yielded a fraction ligated of 0.000904.
ACAGGGATTGA A29T gave a fraction ligated of 0.00506.
Work on TCAGTGATTGA T23A yielded a fraction ligated of 0.00266.
Variant TCAGATAGTGA T23A has a fraction ligated of 0.00511.
For ACAGGGATGTG A29T, the fraction ligated was 0.00794.
In the case of TCAGGGTGTGA A29T, the fraction ligated is reported as 0.00272.
ACAGATGAGTG G34T showed a fraction ligated of 0.00398.
Variant ACAGATGGGTT G34T T37G A40G has a fraction ligated of 0.00113.
Variant ACAGAGGGTGA has a fraction ligated of 0.00282.
Work on TCAGGGATGTA A29T yielded a fraction ligated of 0.000605.
TCAGGGAGTGA T23A gave a fraction ligated of 0.0029.
Work on ACAGGATGTGA A28T A29G yielded a fraction ligated of 0.0031.
ACAGATGGGTT G34A T37G gave a fraction ligated of 0.00125.
Work on TCAGGGATGTG T23A yielded a fraction ligated of 0.00389.
In the case of TCAGATATGTG T23A, the fraction ligated is reported as 0.00384.
In the case of ACAGGGTGTGA, the fraction ligated is reported as 0.00435.
ACAGATGGGTG showed a fraction ligated of 0.00567.
With ACAGATGGGTA the fraction ligated was 0.00187.
In the case of TCAGATGAGTG T23A, the fraction ligated is reported as 0.00683.
TCAGATGTGTA T23A showed a fraction ligated of 0.00304.
Variant TCAGATGAGTA T23A G34T has a fraction ligated of 0.00285.
Variant ACAGATTGTGA has a fraction ligated of 0.00539.
ACAGATAGTGA gave a fraction ligated of 0.00391.
TCAGGGATGTA showed a fraction ligated of 0.00309.
For TCAGGGATGTG, the fraction ligated was 0.00637.
In the case of TCAGATATGTA T23A, the fraction ligated is reported as 0.00212.
TCAGTGAGTGA gave a fraction ligated of 0.00311.
In the case of ACAGTGGAGTA, the fraction ligated is reported as 0.00375.
With TCAGGGTGTGA the fraction ligated was 0.00203.
ACAGTGATTGA was tested, and the fraction ligated was 0.00326.
Variant TCAGATGGGTT G34A G35T T37G A40G has a fraction ligated of 0.000594.
ACAGTGAGTGA gave a fraction ligated of 0.00274.
TCAGATGAGTG G34T gave a fraction ligated of 0.00362.
With ACAGAGGATGA the fraction ligated was 0.00191.
TCAGATGGGTT G34T T37G showed a fraction ligated of 0.00104.
Variant ACAGTGATGTA has a fraction ligated of 0.00194.
Work on ACAGTGATGTG yielded a fraction ligated of 0.00312.
TCAGGATGTGA T23A A29T was tested, and the fraction ligated was 0.00222.
With TCAGGATGTGA T23A A29G the fraction ligated was 0.00232.
